Measurements from paper PMC11231238, “SPRING licenses S1P-mediated cleavage of SREBP2 by displacing an inhibitory pro-domain” (Nature Communications, 2024).

Target: T1, FLAG-S1P_(ecto)-His10, matured C-form (human, UniProt Q14703 187-998)
T1 construct: human S1P (MBTPS1); expressed as IgK leader-FLAG-residues 23-998-His10; after autoproteolysis the His10-bearing C-form; The N-terminal FLAG tag leaves with the A-domain; also called WT S1P_(ecto); C-form of S1P_(ecto); source: HEK 293S GnTI- (BacMam baculovirus), secreted, purified (NiNTA, gel filtration); HEK 293T, transfected, secreted, in supernatant; not shown: His10, C-terminal, kept
T1 sequence (looked up): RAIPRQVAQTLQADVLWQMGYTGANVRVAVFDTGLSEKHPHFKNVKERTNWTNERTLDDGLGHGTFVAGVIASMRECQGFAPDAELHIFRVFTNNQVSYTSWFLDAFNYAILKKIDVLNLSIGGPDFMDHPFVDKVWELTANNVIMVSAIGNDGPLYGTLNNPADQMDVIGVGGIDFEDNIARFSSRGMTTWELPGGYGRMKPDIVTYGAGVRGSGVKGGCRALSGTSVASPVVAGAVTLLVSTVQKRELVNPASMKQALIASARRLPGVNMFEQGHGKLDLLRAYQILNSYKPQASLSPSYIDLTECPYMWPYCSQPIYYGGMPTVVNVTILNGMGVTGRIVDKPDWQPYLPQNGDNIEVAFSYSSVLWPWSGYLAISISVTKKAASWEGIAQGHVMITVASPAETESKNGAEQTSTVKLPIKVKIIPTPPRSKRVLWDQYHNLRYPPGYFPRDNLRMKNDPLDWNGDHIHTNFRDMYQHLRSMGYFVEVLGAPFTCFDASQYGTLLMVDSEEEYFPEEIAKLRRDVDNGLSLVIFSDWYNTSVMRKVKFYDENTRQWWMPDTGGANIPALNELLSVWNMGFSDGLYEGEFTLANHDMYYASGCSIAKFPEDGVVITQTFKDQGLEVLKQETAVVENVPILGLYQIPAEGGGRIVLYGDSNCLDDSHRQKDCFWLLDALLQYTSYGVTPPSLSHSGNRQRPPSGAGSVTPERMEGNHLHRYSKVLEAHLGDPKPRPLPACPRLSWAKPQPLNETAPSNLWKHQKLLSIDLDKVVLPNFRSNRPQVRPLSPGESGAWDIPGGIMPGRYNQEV
Test: pull-down; HEK 293T supernatants of co-transfected cells with 50 mM imidazole; NiNTA resin holds the His10 tag of S1P_(ecto), 1-2 h at 4 °C; washes in 150 mM NaCl, 50 mM HEPES-NaOH pH 7.5, 50 mM imidazole; elution with 300 mM imidazole; immunoblot anti-HA, anti-His, anti-FLAG
Conditions: partners not purified

B1: cleaved A-domain of FLAG-S1P_(ecto)-His10 (domain or fragment, human, UniProt Q14703 23-137, looked up)
chain: DRLEKKSFEKAPCPGCSHLTLKVEFSSTVVEYEYIVAFNGYFTAKARNSFISSALKSSEVDNWRIIPRNNPSSDYPSDFEVIQIKEKQKAGLLTLEDHPNIKRVTPQRKVFRSLK
notes: human S1P (MBTPS1) A pro-domain, released by autoproteolysis from the construct FLAG-residues 23-998-His10; the construct begins at residue 23; in the cryo-EM map the density ends after K137 (cleavage at the B site); cleavage at the alternative B' site is possible too; also called A pro-domain; S1P A-domain; source: HEK 293S GnTI- (BacMam baculovirus), secreted, co-purified with S1P_(ecto) …
B1: binds.
